From paper PMC12375107 (Cell Death & Disease, 2025)

Biological target: T1, STING protein (SPR) (human, UniProt Q86WV6 1-379)
T1 construct: STING, protein injected as analyte; Probably the recombinant protein from E. coli of the GST pull-down
Assay: SPR; Biacore 8K; CAD captured on sensor chip CM5; STING injected at increasing concentrations for 2 min, dissociation 2 min in running buffer; equilibrium constants by the evaluation software
Settings: both partners purified

T1 sequence (Q86WV6 whole entry): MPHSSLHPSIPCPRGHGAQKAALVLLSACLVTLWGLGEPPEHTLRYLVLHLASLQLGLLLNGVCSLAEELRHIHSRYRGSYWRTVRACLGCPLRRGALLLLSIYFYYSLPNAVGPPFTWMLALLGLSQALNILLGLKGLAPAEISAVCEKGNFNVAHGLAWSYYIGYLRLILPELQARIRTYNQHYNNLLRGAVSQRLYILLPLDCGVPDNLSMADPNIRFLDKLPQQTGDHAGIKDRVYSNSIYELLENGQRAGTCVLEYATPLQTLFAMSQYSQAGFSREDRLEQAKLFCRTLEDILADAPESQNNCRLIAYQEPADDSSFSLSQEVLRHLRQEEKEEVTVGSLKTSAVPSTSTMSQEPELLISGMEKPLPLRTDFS

B1: CAD protein (SPR) (enzyme, human, UniProt O76075 1-338, looked up)
chain: MLQKPKSVKLRALRSPRKFGVAGRSCQEVLRKGCLRFQLPERGSRLCLYEDGTELTEDYFPSVPDNAELVLLTLGQAWQGYVSDIRRFLSAFHEPQVGLIQAAQQLLCDEQAPQRQRLLADLLHNVSQNIAAETRAEDPPWFEGLESRFQSKSGYLRYSCESRIRSYLREVSSYPSTVGAEAQEEFLRVLGSMCQRLRSMQYNGSYFDRGAKGGSRLCTPEGWFSCQGPFDMDSCLSRHSINPYSNRESRILFSTWNLDHIIEKKRTIIPTLVEAIKEQDGREVDWEYFYGLLFTSENLKLVHIVCHKKTTHKLNCDPSRIYKPQTRLKRKQPVRKRQ
notes: Probably the recombinant protein from E. coli of the GST pull-down
Kd: 993 nM
